Experimental data reported in patent US20230181528A1, “COMPOSITIONS AND METHODS FOR TREATING NEOPLASIA” (The Broad Institute, Inc., priority 2020, published 2023).

Key:
[1] = system: VPS4 ATPase activity; experiment: In vitro assay of ATPase activity of recombinant VPS4A and VPS4B constructs; assay type: biochemical; settings: for fold change in turnover number between VPS4A and VPS4B construct with the same tag: VPS4B construct vs VPS4A construct; for Turnover (preliminary turnover number): recombinant tagged constructs, ATPase activity
Excerpt: Active oligomers of VPS4A and VPS4B were achieved through recombinant production and an in vitro assay was used to measure ATPas activity. […] Hcp1 (also known as His6 tag (SEQ ID NO: 32)) and FL (also known as FLAG tag) were used.

[2] = system: SNU213 pancreatic cancer cell line (VPS4B^loss); experiment: Interferon dose-response curves with VPS4A suppression (CellTiter-Glo); assay type: cell-based, human; settings: SNU213 shVPS4A-2, co-treatment with 1 μM doxycycline, interferon titration for last 3 days
Method: (§1) To determine whether interferon treatment cooperate with VPS4A suppression, pancreatic cancer cell lines (KP4, PANC0403 and SNU213) stably expressing the doxycycline-inducible RNAi system against VPS4A (shVPS4A-2) were plated in white-walled 96-well plates at 100˜400 cells per well in 100 μL of 10% FBS-supplemented RPMI-1640 with L-glutamine with or without 1 μM doxycycline. Plates were incubated at 37° C., 5% CO2 for 3 days. […] At the same time, the doxycycline was refreshed. Cells were then incubated for an additional 3 days at 37° C., 5% CO2. Afterwards, 100 μL of premixed CellTiter-Glo (Promega) reagent was added to the wells to lyse cells by shaking the plates at 500 RPM for 10 minutes at room temperature. Luminescence for each well was then measured using an Envision plate reader (Perkin Elmer) to measure cell viability using the ATP-based readout. Luminescence signal for each well was normalized to the average signal from 6 wells treated without interferon for each cell line. These normalized values were then visualized using GraphPad Prism 8.3.0 fitted with a four-parameter log-based non-linear dose-response curve.

[3] = system: PANC0403 pancreatic cancer cell line (VPS4B^loss); experiment: as above; assay type: cell-based, human; settings: PANC0403 shVPS4A-2, co-treatment with 1 μM doxycycline, interferon titration for last 3 days
Method: as §1

[4] = system: VPS4B^neutral cell lines; experiment: CRISPR-based cell viability assay with CellTiter-Glo (sgRNAs targeting VPS4A); parameters: species or system human; settings: YAPC; seven-day CellTiter-Glo; scale 0 (cutting controls) to −1 (pan-essential sgRNAs); read from FIG. 2A
Method: For FIG. 2A, CellTiter-Glo viability assays were performed with stably expressing SpCas9 cell lines in 96 well plates. Cells were seeded and infected with sgRNA expressing lentivirus in wells on day 0, and selected with puromycin 24 hours later. Cell titer-Glo viability was read out 7 days after plating and infection. Prior to CellTiter-Glo viability assays, all cell lines were individually optimized for the assay including titrating both cell seeding density and volume of virus used for infection. All lentiviral preps for each sgRNA described below were batch controlled and titrated on three different cell lines representing cell lines with low, medium and high transduction efficiency. Optimal cell seeding densities and viral volumes for infections were then used for all subsequent viability assays using CRISPR. […]
Each assay was required to meet specific quality control metrics. […] For quality control of raw luminescence from CellTiter-Glo, infection efficiency (puro/no puro selection for each sgRNA) was required to be at least 80%, and all replicate wells had to be within 2 standard deviations of the mean for that sgRNA infection. […] SpCas9 activity from each cell line was also required to be greater than 50%, determined by the percent viability reduction of the average of the 3 pan-essential genes (sgPOLR2D, sgSF3B1 and sgKIF11) to negative controls (sgLacZ, sgChr2 and sgAAVS1). […]

With “VPS4B-FL: recombinant VPS4B construct with FL (FLAG) tag” the “fold change in turnover number between VPS4A and VPS4B construct with the same tag” value [1] was over 1 fold and the “Turnover (preliminary turnover number)” value [1] was 21 s⁻¹.

With “VPS4B-Hcp1: recombinant VPS4B construct with Hcp1 tag” the “fold change in turnover number between VPS4A and VPS4B construct with the same tag” value [1] was over 600 fold and the “Turnover (preliminary turnover number)” value [1] was 33280 s⁻¹.

“interferon-γ: purified recombinant human interferon-γ (PeproTech)” was tested, and the “sensitization to VPS4A suppression (6-day cell viability)” value [2] was “strongly sensitized” and the “sensitization to VPS4A suppression (6-day cell viability)” value [3] was “strongly sensitized”.

With “sgVPS4A2: sgRNA targeting VPS4A intron/exon junction, 5′-GGGCCGCACGAAGTACCTGG (SEQ ID NO: 40) (listed as DNA, chemistry not given here)” the “VPS4A dependency score (normalized viability effect)” value [4] was 0.3-0.4.

“sgVPS4A3: sgRNA targeting VPS4A intron/exon junction, 5′-ATTGTTATTCCCCACCCCTG (SEQ ID NO: 41) (listed as DNA, chemistry not given here)” was tested, and the “VPS4A dependency score (normalized viability effect)” value [4] was 0.25-0.35.

B1: VPS4A-Hcp1: recombinant VPS4A construct with Hcp1 tag (protein, UniProt Q9UN37 1-437, looked up)
Vacuolar protein …: MTTSTLQKAIDLVTKATEEDKAKNYEEALRLYQHAVEYFLHAIKYEAHSDKAKESIRAKCVQYLDRAEKLKDYLRSKEKHGKKPVKENQSEGKGSDSDSEGDNPEKKKLQEQLMGAVVMEKPNIRWNDVAGLEGAKEALKEAVILPIKFPHLFTGKRTPWRGILLFGPPGTGKSYLAKAVATEANNSTFFSVSSSDLMSKWLGESEKLVKNLFELARQHKPSIIFIDEVDSLCGSRNENESEAARRIKTEFLVQMQGVGNNNDGTLVLGATNIPWVLDSAIRRRFEKRIYIPLPEEAARAQMFRLHLGSTPHNLTDANIHELARKTEGYSGADISIIVRDSLMQPVRKVQSATHFKKVCGPSRTNPSMMIDDLLTPCSPGDPGAMEMTWMDVPGDKLLEPVVCMSDMLRSLATTRPTVNADDLLKVKKFSEDFGQES
modifications: Hcp1 tag
B1 was tested, and the “Turnover (preliminary turnover number)” value [1] was 53 s⁻¹.

B2: VPS4A-FL: recombinant VPS4A construct with FL (FLAG) tag (protein, UniProt Q9UN37 1-437, looked up)
Vacuolar protein …: B1 Vacuolar protein …
modifications: FLAG tag
In the case of B2, the “Turnover (preliminary turnover number)” value [1] is reported as 10 s⁻¹.
